Test results: article PMC3035177 (Chemistry & biology, 2005)

Target: T1, DnaG primase (purified) (B. stearothermophilus, UniProt Q9X4D0 1-597)
T1 sequence (looked up): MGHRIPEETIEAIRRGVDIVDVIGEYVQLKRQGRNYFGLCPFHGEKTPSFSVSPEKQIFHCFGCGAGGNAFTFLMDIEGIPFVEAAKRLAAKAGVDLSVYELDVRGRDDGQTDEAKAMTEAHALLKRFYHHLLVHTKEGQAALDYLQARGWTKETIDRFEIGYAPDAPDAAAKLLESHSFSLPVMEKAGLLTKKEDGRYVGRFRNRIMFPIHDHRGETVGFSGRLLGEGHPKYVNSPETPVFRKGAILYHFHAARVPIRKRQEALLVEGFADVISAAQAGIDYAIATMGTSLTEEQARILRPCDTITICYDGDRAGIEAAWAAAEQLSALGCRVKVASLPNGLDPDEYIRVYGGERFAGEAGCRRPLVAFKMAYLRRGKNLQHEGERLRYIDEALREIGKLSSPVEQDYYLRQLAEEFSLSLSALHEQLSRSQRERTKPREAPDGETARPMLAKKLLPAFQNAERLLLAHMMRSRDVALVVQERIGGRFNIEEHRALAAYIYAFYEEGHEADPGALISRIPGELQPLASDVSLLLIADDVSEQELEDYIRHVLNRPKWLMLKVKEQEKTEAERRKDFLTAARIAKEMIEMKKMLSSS
Experiment: SEC

binding result: binds
B1: DnaB helicase (purified) (enzyme, B. stearothermophilus, UniProt Q9X4C9 1-454, looked up)
chain: MSELFSERIPPQSIEAEQAVLGAVFLDPAALVPASEILIPEDFYRAAHQKIFHAMLRVADRGEPVDLVTVTAELAASEQLEEIGGVSYLSELADAVPTAANVEYYARIVEEKSVLRRLIRTATSIAQDGYTREDEIDVLLDEADRKIMEVSQRKHSGAFKNIKDILVQTYDNIEMLHNRDGEITGIPTGFTELDRMTSGFQRSDLIIVAARPSVGKTAFALNIAQNVATKTNENVAIFSLEMSAQQLVMRMLCAEGNINAQNLRTGKLTPEDWGKLTMAMGSLSNAGIYIDDTPSIRVSDIRAKCRRLKQESGLGMIVIDYLQLIQGSGRSKENRQQEVSEISRSLKALARELEVPVIALSQLSRSVEQRQDKRPMMSDIRESGSIEQDADIVAFLYRDDYYNKDSENKNIIEIIIAKQRNGPVGTVQLAFIKEYNKFVNLERRFDEAQIPPGA
